This is an account of results in patent US20030045681A1 (published 2003).

Some results are limits rather than exact numbers.

In test [1] the target is an irrelevant antigen (antigen of HyHEL-10, not given). Put plainly: affinity chromatography of the conjugate on an antigen column.
In the next test the target is hen egg lysozyme (hen) (UniProt P00698). Put plainly: radiolabeled scFv loaded onto an antigen column, flow-through and eluate counted.
The target of test [2] is T1, recombinant ED-B domain of fibronectin (UniProt P02751 1266-1356, biotinylated (biotin disulfide N-hydroxysuccinimide ester) in ELISA and the ECL competition; Cy5 at the N-terminal extremity in the band-shift assay).
T1 construct: domain: ED-B; also called biotinylated ED-B; ED-B-biotin
T1 sequence (P02751 1266-1356 limits assumed): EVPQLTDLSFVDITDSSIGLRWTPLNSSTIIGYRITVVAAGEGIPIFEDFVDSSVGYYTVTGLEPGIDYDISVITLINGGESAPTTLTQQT
Put plainly: SPR (BIAcore); the footnote calls this value not sufficiently reliable. The protocol:
(§1) Meth., 206, 171-182) and affinity purified onto a CNBr-activated sepharose column (Pharmacia, Uppsala, Sweden), which had been coupled with 10 mg of ED-B containing 7B89 recombinant protein (Carnemolla et al. (1996). Int. J. Cancer, 68, 397-405). After loading, the column was washed with 50 ml of equilibration buffer (PBS, 1 mM EDTA, 0.5 M NaCl). Antibody fragments were then eluted with triethylamine 100 mM, immediately neutralised with 1M Hepes, pH 7, and dialysed against PBS. Affinity measurements by BIAcore were performed with purified antibodies as described (Neri et al. (1997). Nature Biotechnol., 15 1271-1275) [FIG. 4]. Band-shift analysis was performed as described (Neri et al. (1996). Nature Biotechnology, 14, 385-390), using recombinant ED-B fluorescently labeled at the N-terminal extremity (Carnemolla et al. (1996). Int. J. Cancer, 68, 397-405, Neri et al. (1997). Nature Biotechnol., 15 1271-1275) with the infrared fluorophore Cy5 (Amersham) [FIG. 4]. […] We therefore performed measurements of the kinetic dissociation constant koff by competition experiments (Neri et al. (1996), Trends in Biotechnol., 14, 465-470) [FIG. 4]. […] Streptavidin-coated dynabeads, diluted in Origen Assay Buffer (Deaver, D. R. (1995). Nature, 377, 758-760) were then added (20 μl, 1 mg/ml), and the resulting mixtures analysed with a ORIGEN Analyzer (IGEN Inc. Gaithersburg, Md. USA). […]
For orientation: In SPR one partner is held on a chip, and binding of the other changes the refractive index at the surface.

Test [3] has as its target T1, recombinant ED-B domain of fibronectin. Put plainly: competition of the scFv-(biotinylated ED-B) complex with excess unbiotinylated ED-B, electrochemiluminescent detection (Origen). As for the experimental part: as §1, with “Int.” for “Meth., 206, 171-182) and affinity purified onto a CNBr-activated sepharose column (Pharmacia, Uppsala, Sweden), which had been coupled with 10 mg of ED-B containing 7B89 recombinant protein (Carnemolla et al. (1996). Int.”

The target is the same in test [4]. Put plainly: SPR (BIAcore), purified scFv on ED-B. As for the experimental part: as §1
Test [5] shares this target. Put plainly: Kd = koff/kon, koff from ECL competition, kon from BIAcore. The protocol: as §1, with “Int.” for “Meth., 206, 171-182) and affinity purified onto a CNBr-activated sepharose column (Pharmacia, Uppsala, Sweden), which had been coupled with 10 mg of ED-B containing 7B89 recombinant protein (Carnemolla et al. (1996). Int.”

Chain of hen egg lysozyme (hen) (P00698 19-147): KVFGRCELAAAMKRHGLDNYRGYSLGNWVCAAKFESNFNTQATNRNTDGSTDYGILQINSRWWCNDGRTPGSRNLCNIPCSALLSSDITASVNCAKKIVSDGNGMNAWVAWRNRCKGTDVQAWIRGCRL

For scFv(HyHEL-10)-Cy5, in test [1], the immunoreactivity was > 78%.

radioiodinated scFv(D1.3): in the test with hen egg lysozyme (hen), the immunoreactivity is > 80%.

B1: scFv(L19) (scFv)
scFv: EVQLLESGGGLVQPGGSLRLSCAASGFTFSSFSMSWVRQAPGKGLEWVSSISGSSGTTYYADSVKGRFTISRDNSKNTLYLQMNSLRAEDTAVYYCAKPFPYFDYWGQGTLVTVSSGDGSSGGSGGASTGEIVLTQSPGTLSLSPGERATLSCRASQSVSSSYLAWYQQKPGQAPRLLIYYASSRATGIPDRFSGSGSGTDFTLTISRLEPEDFAVYYCQQTGRIPPTFGQGTKVEIKDDDSDDDYKDDDDKHHHHHH
notes: also called antibody L19; anti-ED-B L19
For B1, the figures for the koff in test [2] and in test [3] were 9.6e-05 s⁻¹ and 6e-06 s⁻¹, respectively. Besides, the kon in test [4] turned out to be 110000 M⁻¹ s⁻¹. Besides, in test [5], the Kd was 54 pM.

In general, koff refers to a measure of how fast the partners let go of each other. In general, kon refers to the second-order rate constant of association. For orientation: Kd means the equilibrium constant for the complex coming apart.
